From patent US20260043020A1, “BINDING MEMBERS WITH ALTERED DIVERSITY SCAFFOLD DOMAINS” (priority 2016, published 2026) come the findings set out here.

The target of experiment [1] is trypsin. Briefly: TRF ELISA, Fab on biotinylated trypsin.
Experiment [2] deals with trypsin. Put plainly: monoclonal phage TRF ELISA. Background: ELISA stands for enzyme-linked immunosorbent assay.
The target of experiment [3] is trypsin. Briefly: phage TRF ELISA; GlyAla (Pro3Gly, Arg4Ala) mutant against the clone.

B1: KB_C10 Fab (Fab, V domains shown)
VH: EVQLVESGGGLVRPGGSLRLSCAASGFTFSSYAMSWVRQAPGKGLEWVSAISGSGGSTYYADSVKGRFTISRDNTKNSLYLQMTSLRADDTAFYYCVKDFGPGYGTGWFDYWGPGTLVTVSS
VL: AVNWYQQLPGKAPKLLIYAAGPCPRILMRCKQDSDCLAGCVCGPNGFCGADSGVSDRFSGSKSGTSASLAITGLQAEDEGDYYCAAWDDSLNGLVFGGGTKVTVLG
In experiment [1], B1 came in with a TRF signal for 0.6 ug/mL Fab of 41700, a TRF signal for 2.4 ug/mL Fab of 146000 and a TRF signal for 10 ug/mL Fab of 238000.

B2: KB_C08 (scFv, V domains shown)
VH: EVQLVESGGGLVRPGGSLRLSCAASGFTFSSYAMSWVRQAPGKGLEWVSAISGSGGSTYYADSVKGRFTISRDNTKNSLYLQMTSLRADDTAFYYCVKDFGPGYGTGWFDYWGPGTLVTVSS
VL: AVNWYQQLPGKAPKLLIYAAAVCPRILMRCKQDSDCLAGCVCGPNGFCGTRSGIPERFSGSKSGTSAFLAISGLRSEDEADYYCAAWDDSLSGVVFGGGTKLTVLG
B2 showed a trypsin binding signal (FU) in experiment [2] of 76800 FU. The molecule further had a % reduction in binding signal in experiment [3] of 100%.

B3: KB_A06 (scFv, V domains shown)
VH: EVQLVESGGGLVRPGGSLRLSCAASGFTFSSYAMSWVRQAPGKGLEWVSAISGSGGSTYYADSVKGRFTISRDNTKNSLYLQMTSLRADDTAFYYCVKDFGPGYGTGWFDYWGPGTLVTVSS
VL: AVNWYQQLPGKAPKLLIYAAVRCPRILMRCKQDSDCLAGCVCGPNGFCGTPSGIPERFSGSIDRSTNSASLTISGLKTEDEADYYCQSYDSSNLNWVFGGGTKLTVLG
For the molecule B3, the trypsin binding signal (FU) in experiment [2] was determined as 24400 FU. In experiment [3], this molecule displayed a % reduction in binding signal of 100%.

B4: KB_A11 (scFv, V domains shown)
VH: EVQLVESGGGLVRPGGSLRLSCAASGFTFSSYAMSWVRQAPGKGLEWVSAISGSGGSTYYADSVKGRFTISRDNTKNSLYLQMTSLRADDTAFYYCVKDFGPGYGTGWFDYWGPGTLVTVSS
VL: YLNWYQQKPGKAPKLLIYAAEICPRILMRCKQDSDCLAGCVCGPNGFCGPSSGIPARFSGSGYGTDFTLTINNIESEDAAYYFCLQHDNFPYTFGQGTKVEIKR
Turning to B4, the trypsin binding signal (FU) in experiment [2] stood at 16400 FU. The molecule also displayed a % reduction in binding signal in experiment [3] of 100%.

B5: KB_A01 (scFv, V domains shown)
VH: EVQLVESGGGLVRPGGSLRLSCAASGFTFSSYAMSWVRQAPGKGLEWVSAISGSGGSTYYADSVKGRFTISRDNTKNSLYLQMTSLRADDTAFYYCVKDFGPGYGTGWFDYWGPGTLVTVSS
VL: YLNWYQQKPGKAPKLLIYAAEVCPRILMRCKQDSDCLAGCVCGPNGFCGGTSGVPSRFSGSRSGTEFTLTISSLQPEDFATYYCQKVDDYPLTFGGGTKVEIKR
For the molecule B5, the trypsin binding signal (FU) in experiment [2] stood at 20200 FU. The % reduction in binding signal in experiment [3] came out at 93%.

B6: KB_B01 (scFv, V domains shown)
VH: EVQLVESGGGLVRPGGSLRLSCAASGFTFSSYAMSWVRQAPGKGLEWVSAISGSGGSTYYADSVKGRFTISRDNTKNSLYLQMTSLRADDTAFYYCVKDFGPGYGTGWFDYWGPGTLVTVSS
VL: AVNWYQQLPGKAPKLLIYAAAGCPRILMRCKQDSDCLAGCVCGPNGFCGTRSGVSDRFSGSKSGTSASLAISGLRSEDEADYYCAAWDDSLRAYVFGTGTKLTVLG
B6 showed a trypsin binding signal (FU) in experiment [2] of 57700 FU. Further, the % reduction in binding signal in experiment [3] is 95%.

B7: KB_A05 (scFv, V domains shown)
VH: EVQLVESGGGLVRPGGSLRLSCAASGFTFSSYAMSWVRQAPGKGLEWVSAISGSGGSTYYADSVKGRFTISRDNTKNSLYLQMTSLRADDTAFYYCVKDFGPGYGTGWFDYWGPGTLVTVSS
VL: AVNWYQQLPGKAPKLLIYAADKCPRILMRCKQDSDCLAGCVCGPNGFCGGGSGIPERFSGSKSGTSASLAISGLRSEDEADYYCATWDDNLNGVVFGGGTKLTVLG
In turn, B7 showed a trypsin binding signal (FU) in experiment [2] of 121000 FU. In experiment [3], this molecule gave a % reduction in binding signal of 100%.

B8: KB_A03 (scFv, V domains shown)
VH: EVQLVESGGGLVRPGGSLRLSCAASGFTFSSYAMSWVRQAPGKGLEWVSAISGSGGSTYYADSVKGRFTISRDNTKNSLYLQMTSLRADDTAFYYCVKDFGPGYGTGWFDYWGPGTLVTVSS
VL: AVNWYQQLPGKAPKLLINAADRCPRILMRCKQDSDCLAGCVCGPNGFCGTNSGVPDRFSGSSSGNTASLTITGAQAEDEADYYCNSRDSSGNNWVFGGGTKVTVLG
In experiment [2], B8 showed a trypsin binding signal (FU) of 28700 FU. In experiment [3], the % reduction in binding signal was determined as 90%.

B9: KB_B02 (scFv, V domains shown)
VH: EVQLVESGGGLVRPGGSLRLSCAASGFTFSSYAMSWVRQAPGKGLEWVSAISGSGGSTYYADSVKGRFTISRDNTKNSLYLQMTSLRADDTAFYYCVKDFGPGYGTGWFDYWGPGTLVTVSS
VL: AVNWYQQLPGKAPKLLIYAAVGCPRILMRCKQDSDCLAGCVCGPNGFCGTGSGIPERFSGSKSGNTASLTISGLQAEDEGDYYCAAWDDSLSGPVFGGGTKLTVLG
Consider B9, for which the trypsin binding signal (FU) in experiment [2] turned out to be 116000 FU. In experiment [3], the % reduction in binding signal amounted to 98%.

B10: KB_A09 (scFv, V domains shown)
VH: EVQLVESGGGLVRPGGSLRLSCAASGFTFSSYAMSWVRQAPGKGLEWVSAISGSGGSTYYADSVKGRFTISRDNTKNSLYLQMTSLRADDTAFYYCVKDFGPGYGTGWFDYWGPGTLVTVSS
VL: AVNWYQQLPGKAPKLLIYAAERCPRILMRCKQDSDCLAGCVCGPNGFCGTPSGVPDRFSGSIDTFSNSASLTISGLKTEDEADYYCQSYDSSHHWVFGGGTKLTVLG
As for B10, the trypsin binding signal (FU) in experiment [2] is 57700 FU. The molecule further registered a % reduction in binding signal in experiment [3] of 100%.

B11: KB_A02 (scFv, V domains shown)
VH: EVQLVESGGGLVRPGGSLRLSCAASGFTFSSYAMSWVRQAPGKGLEWVSAISGSGGSTYYADSVKGRFTISRDNTKNSLYLQMTSLRADDTAFYYCVKDFGPGYGTGWFDYWGPGTLVTVSS
VL: AVNWYQQLPGKAPKLLIYAAAKCPRILMRCKQDSDCLAGCVCGPNGFCGGASGVSDRFSGSIDSSSNSASLTISGLKPEDEGDYYCQSYDSSNRWVFGGGTKVTVLG
As to B11, the trypsin binding signal (FU) in experiment [2] turned out to be 183000 FU. The same molecule gave a % reduction in binding signal in experiment [3] of 96%.

B12: KB_C07 (scFv, V domains shown)
VH: EVQLVESGGGLVRPGGSLRLSCAASGFTFSSYAMSWVRQAPGKGLEWVSAISGSGGSTYYADSVKGRFTISRDNTKNSLYLQMTSLRADDTAFYYCVKDFGPGYGTGWFDYWGPGTLVTVSS
VL: AVNWYQQLPGKAPKLLIYAAVGCPRILMRCKQDSDCLAGCVCGPNGFCGSASGVSDRFSGSKSGTSASLAISGLRSEDEADYYCASWDDSLRGYVFGTGTKVTVLG
B12 gave a trypsin binding signal (FU) in experiment [2] of 43300 FU. In experiment [3], this molecule yielded a % reduction in binding signal of 100%.

B13: KB_A10 (scFv, V domains shown)
VH: EVQLVESGGGLVRPGGSLRLSCAASGFTFSSYAMSWVRQAPGKGLEWVSAISGSGGSTYYADSVKGRFTISRDNTKNSLYLQMTSLRADDTAFYYCVKDFGPGYGTGWFDYWGPGTLVTVSS
VL: AVNWYQQLPGKAPKLLIYAAGGCPRILMRCKQDSDCLAGCVCGPNGFCGSNSGVPDRFSGSKSGNTASLTISGLQSEDEADYYCAAWDDSLSGVVFGGGTQLTVLG
Turning to B13, in experiment [2], the trypsin binding signal (FU) was determined as 38800 FU. The molecule also had a % reduction in binding signal in experiment [3] of 100%.
